Experimental findings from paper PMC6101483, “Investigating mycobacterial topoisomerase I mechanism from the analysis of metal and DNA substrate interactions at the active site” are described below.

The data set has as its target T1, MtbTOP1-704t (Mycobacterium tuberculosis, UniProt P9WG49 2-704).
T1 sequence: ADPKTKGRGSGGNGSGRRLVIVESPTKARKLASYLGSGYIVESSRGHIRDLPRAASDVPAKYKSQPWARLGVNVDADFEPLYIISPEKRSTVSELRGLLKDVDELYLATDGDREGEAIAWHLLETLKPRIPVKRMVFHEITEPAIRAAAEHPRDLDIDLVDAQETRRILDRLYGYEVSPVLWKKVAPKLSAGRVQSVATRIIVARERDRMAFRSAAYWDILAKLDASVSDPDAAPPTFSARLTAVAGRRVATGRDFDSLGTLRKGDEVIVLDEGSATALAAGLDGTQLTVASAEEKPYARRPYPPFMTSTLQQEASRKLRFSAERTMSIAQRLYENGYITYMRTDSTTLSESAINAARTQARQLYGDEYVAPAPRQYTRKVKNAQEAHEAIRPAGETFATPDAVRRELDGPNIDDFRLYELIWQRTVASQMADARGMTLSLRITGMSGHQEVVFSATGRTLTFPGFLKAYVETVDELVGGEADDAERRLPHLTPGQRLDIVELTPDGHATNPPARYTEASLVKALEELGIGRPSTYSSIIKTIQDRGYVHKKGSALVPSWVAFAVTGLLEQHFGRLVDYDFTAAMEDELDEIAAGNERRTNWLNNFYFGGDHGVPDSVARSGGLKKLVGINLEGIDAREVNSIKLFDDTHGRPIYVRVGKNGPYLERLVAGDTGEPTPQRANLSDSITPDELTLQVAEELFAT
The data set is described as follows: X-ray crystallography; no metal at active site; 2.42 A. The following applies: protein: recombinant; tags: His6-Mocr removed by TEV; N-terminal SNA remains; single strand.

For the molecule TTCCGCTTGAC (ssDNA) [MTS2-11], the binding result is recorded as “binds”.
